Experiments:
[1] = molecular target: T1, Muc1 mucin carrying the CA6 sialoglycotope (human, UniProt P15941 24-1255, sialylated O-linked carbohydrate carrying the CA6 epitope; positions not stated); test: flow cytometry on MDA-MB-468 cells, apparent Kd
T1 construct: whole, on cells; Target of DS6 on CA6-positive human cell lines (flow cytometry) and in their lysates (dot blots, immunoprecipitation); also called CA6 antigen; DS6 antigen
Description: (§1) Human cell lines were obtained from the American Type Culture Collection (ATCC) with the exception of OVCAR5 (Kearse et al., Int. J. Cancer 88(6):866-872 (2000)), OVCAR8 and IGROV1 cells (M. Seiden, Massachusetts General Hospital). All cells were grown in RPMI 1640 supplemented with 4 mM L-glutamine, 50 U/ml penicillin, 50 μg/ml streptomycin (Cambrex Bio Science, Rockland, Me.) and 10% v/v fetal bovine serum (Atlas Biologicals, Fort Collins, Colo.), referred hereafter as culture media. Cells were maintained in a 37° C., 5% CO₂ humidified incubator.
(§2) Cells ([…]) were incubated, on ice for 3-4 h, with serially diluted concentrations of the DS6 antibody prepared in FACS buffer (2% goat serum, RPMI) into 96-well plates. The cells were spun down in a table top centrifuge at 1500 rpm for 5 min at 4° C. After removing the media, the wells were then refilled with 150 μl of FACS buffer. The wash step was then repeated. FITC-labeled goat anti-mouse IgG (Jackson Immunoresearch) was diluted 1:100 to FACS buffer and incubated with the cells for 1 h on ice. The plate was covered in foil to prevent photobleaching of the signal. After two washes, the cells were fixed with 1% formaldehyde and analyzed on a flow cytometer.

[2] = molecular target: T1, Muc1 mucin carrying the CA6 …; test: flow cytometry on Hs766T cells, apparent Kd
[3] = molecular target: T1, Muc1 mucin carrying the CA6 …; test: flow cytometry on SW1990 cells, apparent Kd
Description: as §1, §2

[4] = molecular target: T1, Muc1 mucin carrying the CA6 …; test: flow cytometry on MDA-MB-231 cells, apparent Kd
Description: as §1, §2

[5] = molecular target: T1, Muc1 mucin carrying the CA6 …; test: flow cytometry on BT-483 cells, apparent Kd
Description: as §2

[6] = molecular target: T1, Muc1 mucin carrying the CA6 …; test: flow cytometry on HeLa cells
[7] = molecular target: T1, Muc1 mucin carrying the CA6 …; test: flow cytometry on MDA-MB-157 cells, apparent Kd
Description: as §1, §2

[8] = molecular target: T1, Muc1 mucin carrying the CA6 …; test: flow cytometry on TOV-21G cells, apparent Kd
[9] = molecular target: T1, Muc1 mucin carrying the CA6 …; test: flow cytometry on ZR-75-1 cells, apparent Kd
Description: as §1, §2

[10] = molecular target: T1, Muc1 mucin carrying the CA6 …; test: flow cytometry on BT-20 cells, apparent Kd

B1: murine DS6 anti-CA6 monoclonal antibody (antibody, IgG1, V domains shown)
VH: QAYLQQSGAELVRSGASVKMSCKASGYTFTSYNMHWVKQTPGQGLEWIGYIYPGNGATNYNQKFKGKATLTADPSSSTAYMQISSLTSEDSAVYFCARGDSVPFAYWGQGTLVTVSA
VL: QIVLTQSPAIMSASPGEKVTITCSAHSSVSFMHWFQQKPGTSPKLWIYSTSSLASGVPARFGGSGSGTSYSLTISRMEAEDAATYYCQQRSSFPLTFGAGTKLELKR
notes: Whole murine monoclonal IgG from the DS6 hybridoma (ATCC PTA-4449); the 3' heavy chain cloning primer was BamIgG1 and the light chain primer was kappa; also called DS6 antibody; muDS6
- Kd [1]: 0.813 nM
- Kd [2]: 2.32 nM
- Kd [3]: 0.368 nM
- Kd [4]: 1.46 nM
- Kd [5]: 13.7 nM
- Kd [6]: 0.62 nM
- Kd [7]: 0.197 nM
- Kd [8]: 0.307 nM
- Kd [9]: 4.3 nM
- Kd [10]: 0.914 nM

Source: patent US20050123549A1 (IMMUNOGEN, published 2005)
